Among the data in patent US20140109263A1 are IC50 and percent displacement of ^125I Cry1Ea values, retold here.

Experiment [1] deals with receptor proteins in midgut brush border membrane vesicles (BBMV's) from fall armyworm (FAW; Spodoptera frugiperda) larvae (Spodoptera frugiperda). Briefly: homologous competition: unlabeled Cry1Ea against 125I Cry1Ea on FAW BBMV's, FIG. 3.
The target is the same in experiment [2]. Briefly: homologous competition: unlabeled Cry1Ea against 0.5 nM 125I Cry1Ea on FAW BBMV's (150 ug/ml), FIG. 1.
For experiment [3] the target is unchanged. Briefly: heterologous competition: 1,000 nM unlabeled Cry1Da against 125I Cry1Ea on FAW BBMV's, FIG. 4.

In the case of “Cry1Ea protein, trypsin-cleaved activated form (protease-processed Cry1Ea) (from UniProt Q57458 1-612)”, the IC50 in experiment [1] and in experiment [2] was 1 nM in each case.

Consider “Cry1Da protein, trypsinized (protease-processed Cry1Da) (from UniProt P19415 28-603)”, for which the percent displacement of ^125I Cry1Ea in experiment [3] came out at 40%.
